Assay results: the DeepSol protein solubility set

Assay: soluble on expression in E. coli; label from the status in PepcDB or PDB records
With “GSHMTEAEYLANYDPKAFKAQLLTVDAVLFTYHDQQLKVLLVQRSNHPFLGLWGLPGGFIDETCDESLEQTVLRKLAEKTAVVPPYIEQLCTVGNNSRDARGWSVTVCYTALMSYQACQIQIASVSDVKWWPLADVLQMPLAFDHLQLIEQARERLTQKALYSLVPGFALSEPFTLPELQHVHEVLLGKPIQGKSFRRRVEQADLLIDTGLKRTERGRPANLYCLKPDTASYRFLRNLEC” the “soluble on expression in E. coli” value was “soluble”. In the case of “MTYTLAILGCGVMGQALLSAIYNAPKAADETAAAFYPSKIITCNHDEPSAQQVTDLVETFDESPNGIKVESTYGHNVSAVEEASVVLLGTKPFLAEEVLNGVKSVIGGKLLISLAAGWTIDQLSQYTSTVCRVMTNTPAKYGYGCAVVSYSADVSKEQKPLVNELISQVGKYVELPEKNMDAATALVGSGPAFVLLMLESLMESGLKLGIPLQESKECAMKVLEGTVKMVEKSGAHPSVLKHQVCTPGGTTIAGLCVMEEKGVKSGIINGVEEAARVASQLGQKKK”, the “soluble on expression in E. coli” value is reported as “soluble”. For “MLPFDPSTRYDRQVRLWGEEGQASIGSTSACVLGSDSLATEILKSLVLAGVQSFYVVDDAKVEQADIGQNFFLHADDIGRSRAEATLEKLTELNPSVSGSASSQPPTALAMEDVEKLTTFSVVVAANQNEEIDTTFAKVLYNIRVPFICIKTFGLIGTIRICIKEHTIANSHEENPRPDLRLDAPFSKLIEMINETNLDEMTLEQLRHTPYILLHFKALEVFRKQRNDPEAFPSTTAERKELQAILMSFRRSSEESGTKDSENFDEAKAAVIRAFQRTTIGSSVKSILSSPQCSTSTRPFWLICEALRRFVTENNNLLPLRGTLPDMTSDSSRYTRLATLFHEKALSDAQEVLRLTREVEKERGVGDVISDDVCYRFCKNADRIRVQYGDVLDYNEETKAIVEKIRESNIDEETRNQKVDEATWMLLMRAVGRFQKEKGRYPGTNGVPVSIDAQDLKKRVEVLIREALKDEQDFTSISNKVTDTAIAEICRFGAAELHVISSYVGGIAAQEIIKLATNQYVPIDNTFIFDGHTQESATFKF”, the “soluble on expression in E. coli” value was “not soluble”. With “MVDPVGFAEAWKAQFPDSEPPRMELRSVGDIEQELERCKASIRRLEQEVNQERFRMIYLQTLLAKEKKSYDRQRWGFRRAAQAPDGASEPRASASRPQPAPADGADPPPAEEPEARPDGEGSPGKARPGTARRPGAAASGERDDRGPPASVAALRSNFERIRKGHGQPGADAEKPFYVNVEFHHERGLVKVNDKEVSDRISSLGSQAMQMERKKSQHGAGSSVGDASRPPYRGRSSESSCGVDGDYEDAELNPRFLKDNLIDANGGSRPPWPPLEYQPYQSIYVGGMMEGEGKGPLLRSQSTSEQEKRLTWPRRSYSPRSFEDCGGGYTPDCSSNENLTSSEEDFSSGQSSRVSPSPTTYRMFRDKSRSPSQNSQQSFDSSSPPTPQCHKRHRHCPVVVSEATIVGVRKTGQIWPNDGEGAFHGDADGSFGTPPGYGCAADRAEEQRRHQDGLPYIDDSPSSSPHLSSKGRGSRDALVSGALESTKASELDLEKGLEMRKWVLSGILASEETYLSHLEALLLPMKPLKAAATTSQPVLTSQQIETIFFKVPELYEIHKEFYDGLFPRVQQWSHQQRVGDLFQKLASQLGVYRAFVDNYGVAMEMAEKCCQANAQFAEISENLRARSNKDAKDPTTKNSLETLLYKPVDRVTRSTLVLHDLLKHTPASHPDHPLLQDALRISQNFLSSINEEITPRRQSMTVKKGEYRQLLKDSFMVELVEGARKLRHVFLFTDLLLCTKLKKQSGGKTQQYDCKWYIPLTDLSFQMVDELEAVPNIPLVPDEELDALKIKISQIKSDIQREKRANKGSKATERLKKKLSEQESLLLLMSPSMAFRVHSRNGKSYTFLISSDYERAEWRENIREQQKKCFRSFSLTSVELQMLTNSCVKLQTVHSIPLTINKEDDESPGLYGFLNVIVHSATGFKQSSNLYCTLEVDSFGYFVNKAKTRVYRDTAEPNWNEEFEIELEGSQTLRILCYEKCYNKTKIPKEDGESTDRLMGKGQVQLDPQALQDRDWQRTVIAMNGIEVKLSVKFNSREFSLKRMPSRKQTGVFGVKIAVVTKRERSKVPYIVRQCVEEIERRGMEEVGIYRVSGVATDIQALKAAFDVNNKDVSVMMSEMDVNAIAGTLKLYFRELPEPLFTDEFYPNFAEGIALSDPVAKESCMLNLLLSLPEANLLTFLFLLDHLKRVAEKEAVNKMSLHNLATVFGPTLLRPSEKESKLPANPSQPITMTDSWSLEVMSQVQVLLYFLQLEAIPAPDSKRQSILFSTEV” the “soluble on expression in E. coli” value was “soluble”. With “MGSSHHHHHHSSGRENLYFQGVLGAGCIGGSIALKLKEKHHVTAFDRDEETMKALEENGIETVSKESDLYDTDLLVLALPMSVEERFLKETDFSGKILDVASVKTPFMEIARERGLNFTGGHPMAGNERKGKSGWDREMFDGKIFFLCSLDGKEDGMIENIVKDLGARPLWIDYRIHDEIVAAVSHVQYLISLSARYVGKPFEEYAGPGYLSNTRLSKQNMEMALDMIRYNKENILKYLENARNFLNVLYHLTEKEDFENLKKVIREVI” the “soluble on expression in E. coli” value was “soluble”. In the case of “MNTMKNVTKRSFQTIAIVGKPRHDNALETHLAVYNWLKDRHYSVLVEEKIAEQLQLPNGKRIEEIGQIADLVIVIGGDGNMLGMARSLAKYQVPLIGINRGNLGFLTDIAPQSAFEQLYSCLEKGEFIIEQRFLLEAQIEQNGKIISANNALNEVAIHPTQVARIIEFEVYIDSKFAFSQRSDGLIIATPTGSTAYSLSAGGPILTPNMNAIALVPMHPHALSSRPLVIDGDSHISLRFAQYNQPNLEISCDGQDDLPFTPEDRIIVRKSPDILHLLHLKDYNYFTVLGSKLGWSSKLF”, the “soluble on expression in E. coli” value is reported as “soluble”. With “MYQSIHVNKGQGGWGTGLDLTPSEPRTKVVSITGGGIHPVALKIAELSGAEAVDGFKNSIPEEEMMCVVIDCGGTARIGVYPMKRIPTVDILPSSPSGPLAKHITEDIFVSGVKPEDIMVTSSEADPGKPFDREKFKEDYAKIKEDQQEASDLKEGYLVKFSRGIGKAMGVFYQAGRDSVDMLIKN” the “soluble on expression in E. coli” value was “not soluble”. For “MSLNLLALPLRSEVELADARTRARHIAELLGLGNQDQVRVATVVSELARNVLLYAGSGQVTFSVRDEAGRSTLLIEVRDQGPGLGHLDEVLGGQYRSKTGMGVGLTGTRRLMDEFDIQTAPGKGTVVRVGKHLPAVVGDAEQRRVAEVLGSSGPRDLLTALSVQNRDLLETLAALNEREERLQVLNQELQDTNRGVVALYAELEEKAERLREANGLKTTFLSYMSHELRTPLHSMLGLARILSGQLDGPLNPEQLKQVQLLQGAAGDLLEMVNGLLDLAKMEAGKTDVDVTTFEVRELFGTLRALFLPLLDNPAVNLIFEDAAGFPPLTTDQRKVEQVLRNFIANALKFTAAGEVRVTAQLLPSGDRVRFTVQDTGIGLSDEEQAQLFQDFSQVGRPGRPAGTGLGLSIARKFTELLGGRVGVQSAPGAGAEFSAELPVVYPGVGAAKRPRALLIDDSEADRYVLTTLLTRAGYEVDEVAYAEPGLEQARSGAYDAVVLDLNLPDRSGLDVLRALRENAGTRSLPVLVVIAAALDAAERAALETLGASVHLKEALYQDEQVLFASLPSGSVHYGEAEGHHHHHH”, the “soluble on expression in E. coli” value was “soluble”. With “MKFAIFVNTTREKALELARELTAWLDARSIDYVFDPQSAKALGCGKWEEKADLSQHCDAFVALGGDGTLLLASHYSRSKPVVGINVGDLGFLTEFSPDEMWVAMDHLVSGNYSIHTRSQLEATLESGESLTSLNDVIFEKGSAARRLPAFTILLDDEMLGSYRADGIIIATSTGSTAYSMSAGGPIIAPKSNVFVITPICPHMLTVRPIVISDDKTIKISVDSQSGEFPLKMDGIQKKLLAPGEVVTVKKSPHHINLVANEKRNYCEILRKKLLWSHEHPTGELEHHHHHH” the “soluble on expression in E. coli” value was “not soluble”. In the case of “MGHHHHHHSHMEMASADSDEDPRHKVGKTPHLTLPADLQTLHLNRPTLSPESKLEWNNDIPEVNHLNSEHWRKTEKWTGHEETNHLETDFSGDGMTELELGPSPRLQPIRRHPKELPQYGGPGKDIFEDQLYLPVHSDGISVHQMFTMATAEHRSNSSIAGKMLTKVEKNHEKEKSQHLEGSASSSLSSD”, the “soluble on expression in E. coli” value is reported as “not soluble”. For “SNRTSAKSNLMLILLGLQMKEISNSDLYKLKEVRSVVTSLASFLFQQQNVGVMKSFDSLEKEAFRDLVNRLVSQGLIGLKDKTSETFDLLPLKNLFEYAEKRISVLMKLQCYTGTVQLSHVQEKLHLPYITTNGIVDVFKECLKRTKKQYPEVLKNWWIDLDPKNGMEDQNSGILLHLEYAAAYS”, the “soluble on expression in E. coli” value was “soluble”. In the case of “MRSDTSVEPEGANFIAEFFGHRVYPEVVSTEAARNDQATGTCPFLTAAKLVETSCVKAETSRGVCVVNTAVDNERYDWLVCPNRALDPLFMSAASRKLFGYGPTEPLQFIAAPTLADQAVRDGIREWLDRGVHVVAYFQEKLGGELSISKTDSSPEFSFDWTLAEVESIYPVPKIKRYGVLEIQTMDFHGSYKHAVGAIDIALVEGIDFHGWLPTPAGRAALSKKMEGPNLSNVFKRTFYQMAYKFALSGHQRCAGTGFAIPQSVWKSWLRHLANPTLIDNGDGTFSLGDTRNDSENAWIFVFELDPDTDASPRPLAPHLEIRVNVDTLIDLALRESPRAALGPSGPVATFTDKVEARMLRFWPKTRRRRSTTPGGQRGLFDA”, the “soluble on expression in E. coli” value is reported as “soluble”. For “MESRESSKDRLLILPSMGESYTEYVDSYLNLELLERGERETPIFLESLTRQLTQKIYELIKTKSLTADTLQQISDKYDGVVAENKLLFLQRQYYVDDEGNVRDGRNNDKIYCEPKHVYDMVMATHLMNKHLRGKTLHSFLFSHFANISHAIIDWVQQFCSKCNKKGKIKPLKEYKR”, the “soluble on expression in E. coli” value was “soluble”. With “MSKLGKQDVYYFEGLDDILIAMMTTKDAVGTEPAFGEVVRLPIATKLGIKGNGTALEKWASSKMFRRVSRETKHEIALDHVGIPIAVMDEIKGLIAQSGVTFGKNTAREFPYFAFGFIGNIENGGKKAVWYPKTQLSNVIDEEYTTAEDETKIDDVTANFVSTGLTYNNVMYSSFDSNRDSASIELFEKFIAQPVYDEEQWKKLAGPSRGGGSE” the “soluble on expression in E. coli” value was “not soluble”. With “MKKHDGIIVLLSGGMDSATLLWLAKREFKKVYAISFDYGQRHKVELKYAKELAKLAEVEDHFIVQVPFYTSLKGSALIDESVEVPKGEYPENEPPVTTVPMRNLIFLSIASAFADNLEVNYIGIGVHALDTPYPDCRPEFITAAEAAINAGSTFVAKKKERMHVYAPFLGMSKRDIALLGKELGVPFEKTYSCYMGTEPPCGECPTCIQREEALRGIL” the “soluble on expression in E. coli” value was “soluble”. In the case of “MSLSMEFDAVIIGGGVSGCATFYTLSEYSSLKRVAIVEKCSKLAQISSSAKANSQTIHDGSIETNYTPEKAKKVRLSAYKTRQYALNKGLQNEVIFETQKMAIGVGDEECEFMKKRYESFKEIFVGLEEFDKQKIKELEPNVILGANGIDRHENIIGHGYRKDWSTMNFAKLSENFVEEALKLKPNNQVFLNFKVKKIEKRNDTYAVISEDAEEVYAKFVLVNAGSYALPLAQSMGYGLDLGCLPVAGSFYFVPDLLRGKVYTVQNPKLPFAAVHGDPDAVIKGKTRIGPTALTMPKLERNKCWLKGISLELLKMDLNKDVFKIAFDLMSDKEIRNYVFKNMVFELPIIGKRKFLKDAQKIIPSLSLEDLEYAHGFGEVRPQVLDRTKRKLELGEKKICEGHHHHHH”, the “soluble on expression in E. coli” value is reported as “not soluble”. For “MCANIGVDPLASNKGFWAELLGIGDFYYELGVQIIEVCMLTRSHNGGLISLQELCNHLRQRRKKDREAVTEDDCLRAISKLKVLGSGFEVITIGKKKLVRSVPTELNKDHNQILELAQGQGFVIVEEVQRRLSWTSGRVIDALETLLEEGLAMIDNGHKDGKCRYWFPCVSSVYSSIGSDT”, the “soluble on expression in E. coli” value was “soluble”. With “MGSDKIHHHHHHMALYPLPALVEQLMTQPIIFIGGKGGVGKTTTAAALASYYASQGKKTLIVSTDPAHSLGDVLKVPLKNQKTVVTPYLDAIELNPDLIVDEHFAQVERTITSYANPDMMPKIREHLRLSKSAPGAQEAAMLESMCQHLVAAADAGYEHIIFDTAPTGHTLRLLVLPEMMGAWTDGLLAQQRRQAKLRSVANHLGSHEQANNNKNDLANPFVERKSDRWEQAVSVLEKRKQLFRQAGLLLHDRRKTAIVLVMTADVLPLAETKRAIEQLEESNLIPAAIVINQLITQTQSDAFWHHRAERQQQLMQDIEKNFTNYPLYPIYLQQTDVRGTDALSALVSPVS” the “soluble on expression in E. coli” value was “not soluble”.
